Test results published in patent publication US8455448B2, “Myostatin isoform” (Myostin Therapeutics Pty Ltd, priority 2004, dated 2013).

How the values were obtained:
Format in all cases: cell-based, murine
[1] = system: myogenin; assay: Myogenin protein in differentiating C2C12 myoblasts (Western blot); conditions: 0, 0.1, 1, 10 μg/ml, 72 h in differentiation medium, FIG. 4
Procedure: (§1) To investigate whether roMSV65 regulates myoblast differentiation or myotube hypertrophy, C2C12 myoblast cultures were employed. Levels of well-established early and late molecular markers of myogenic differentiation like myogenin and dMHC were measured in the presence and absence of roMSV65 protein.
(§2) C2C12 myoblasts were seeded in 10 cm diameter tissue culture plates (Nunc, Roskilde, Denmark) at a cell density of 25,000 cells per cm^2 in 10 ml of Dulbecco's modified Eagle's medium (DMEM, Invitrogen, California) supplemented with foetal bovine serum (FBS, 10% v/v, Invitrogen), penicillin (1×10^5 IU/l, Sigma, St Louis, Mo., USA) and streptomycin (100 mg/I, Sigma) buffered with NaHCO3 containing phenol red (7.22 nmol/l) as a pH indicator, and incubated overnight at 37° C. with 5% CO2.
To study myoblast differentiation, the medium was replaced with the test medium: DMEM with 2% Horse Serum supplemented with 0, 0.1, 1 or 10 μg/ml roMSV65 in three replicates for each concentration (n=3). […]
(§3) Cells were removed from the plate by trypsin treatment, washed with phosphate buffered saline (PBS, Oxoid, UK) and resuspended in 200 μl of lysis buffer (10 mM Hepes pH 7.9, 1.5 mM MgCl2, 10 mM KCl, 0.5% NP40, one Complete protease inhibitor tablet [Roche Diagnostics, USA] per 50 ml buffer). […] Band intensities were measured with a GS800 densitometer (Bio-Rad, CA).

[2] = system: developmental myosin heavy chain (dMHC); assay: Developmental myosin heavy chain (dMHC) protein in C2C12 myotubes (Western blot); conditions: FIG. 5
Procedure: as §1, §2
To study myoblast differentiation, the medium was replaced with the test medium: DMEM with 2% Horse Serum supplemented with 0, 0.1, 1 or 10 μg/ml roMSV65 in three replicates for each concentration (n=3). Plates were incubated at 37° C. with 5% CO2 for 72 hours.
as §3, with “buffer). The protein concentration was estimated using the bicinchoninic acid (BCA, Sigma, Missouri) protein assay. 20 μg of total protein was separated by SDS-PAGE (8% for MHC or 12% for myogenin) and transferred to nitrocellulose membrane by electroblotting. The blots were stained with Ponceau S stain to check equal loading.” for “buffer).”

[3] = system: p21; assay: p21 protein in proliferating C2C12 myoblasts (Western blot); conditions: 0.1, 1, 10 μg/ml, 48 h, FIG. 6
Procedure: (§4) Thus, a decrease in p21 protein expression may indicate an increased cell proliferation rate. PCNA is a positive marker of cell proliferation. It is a subunit of DNA polymerase-delta during DNA replication in the cell cycle. Higher level of PCNA protein expression is associated with higher number of cells entering the DNA replication phase of the cell cycle.
(§5) C2C12 myoblasts were seeded in 10 cm diameter tissue culture plates (Nunc, Roskilde, Denmark) at a cell density of 3000 cells per cm^2 in 10 ml of Dulbecco's modified Eagle's medium (DMEM, Invitrogen, California) supplemented with foetal bovine serum (FBS, 10% v/v, Invitrogen), penicillin (1×105 IU/l, Sigma, St Louis, Mo., USA) and streptomycin (100 mg/l, Sigma) buffered with NaHCO3 containing phenol red (7.22 nmol/l) as a pH indicator, and incubated overnight at 37° C. with 5% CO2. The medium was replaced with the test medium: DMEM with 10% FBS supplemented with, 0.1, 1 or 10 μg/ml oMSV65 (n=3). The plates were then incubated at 37° C. with 5% CO2 for 48 hours. Cells were removed from the plate by trypsin treatment, washed with phosphate buffered saline (PBS, Oxoid, UK) and resuspended in 100 μl of lysis buffer (10 mM Hepes pH 7.9, 1.5 mM MgCl2, 10 mM KCl, 0.5% NP40, one Complete protease inhibitor tablet [Roche Diagnostics, USA] per 50 ml buffer). […] Band intensities were measured with a GS800 densitometer (BioRad, USA).

[4] = system: proliferating cell nuclear antigen (PCNA); assay: PCNA protein in proliferating C2C12 myoblasts (Western blot); conditions: 0.1, 1, 10 μg/ml, 48 h, FIG. 7
Procedure: as §4, §5

B1: roMSV65: 65 amino acid C-terminal peptide of ovine MSV (SEQ ID NO: 49) expressed as recombinant protein in E. coli (protein)
chain: VHFYTPPYGQWIFHKERKIIFLEVYIQFCSILGEAVFKRQSKSIHFCQNFKIIACLCNTAAFRMK
modifications: Ovis aries
- myogenin protein levels in C2C12 myotubes [1]: dose-dependently increases myogenin protein levels
- increase in dMHC abundance compared to untreated controls ([2]; 0.1 μg/ml roMSV65, 72 h): 18 fold
- increase in dMHC abundance compared to untreated controls ([2]; 1 μg/ml roMSV65, 72 h): 20 fold
- increase in dMHC abundance compared to untreated controls ([2]; 10 μg/ml roMSV65, 72 h): 2 fold
- p21 protein levels in proliferating C2C12 myoblasts [3]: dose-dependently decreases p21 protein levels
- PCNA protein levels in C2C12 myoblasts [4]: concentration-dependent increase in PCNA protein levels
